Measurements reported in US20060211075A1, “Enzyme sensors including environmentally sensitive or fluorescent labels and uses thereof” (The Albert Einstein College of Medicine of Yeshiva …, priority 2005, published 2006).
Non-standard residues stand in square brackets, D forms with d. Residues, ends and D or L forms follow the SMILES beside them. No end group written: not given here. *: point of attachment. Cascade Yellow = fluorophore from Cascade Yellow succinimidyl ester, attached to the Dab or Dap side chain; pY = N[C@@H](Cc1ccc(OP(=O)(O)O)cc1)C(=O)O; NBD = O=[N+]([O-])c1ccc(*)c2nonc12; Dab = NCC[C@H](N)C(=O)O; Dap = NC[C@H](N)C(=O)O

Legend:
[1] = target: T1, Src (Homo sapiens, UniProt P12931); experiment: Src kinase-catalyzed phosphorylation of self-reporting fluorophore-peptides, fluorescence change (no detection module); settings: for Phosphorylation-induced fluorescence change: Src, no detection module; for Fluorescence change (fold): upon phosphorylation
Experimental: Tyrosine kinase-catalyzed phosphorylation was initiated by addition of 15 μL of 10 mM ATP to the following solution: 3 μL 0.1 mM peptide stock solution, 3.8 μL 200 mM MgCl2, 1.5 μL 100 mM MnCl2, 23.2 μL H2O, 6 μL 50 mM DTT, 15 μL 0.1 mg/mL BSA, and 7.5 μL 0.03 μM Src in 75 μL Tris buffer solution (pH 7.2).

[2] = target: T2, GST-Lck-SH2 (Homo sapiens, UniProt P06239); experiment: Fluorescence change as a function of Lck-SH2 concentration (Src-catalyzed phosphorylation); assay type: biochemical
T2 construct: made in house; host or cells: E. coli
T2 sequence (P06239 127-224 limits assumed): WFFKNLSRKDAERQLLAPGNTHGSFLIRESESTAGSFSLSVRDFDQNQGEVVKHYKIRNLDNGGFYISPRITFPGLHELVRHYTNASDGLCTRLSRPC
Source text: As is evident from Table 1, the dapoxyl fluorophore positioned off the +3 and +4 sites on the peptide substrate (Dap-5 and Dab-5) produce the largest changes in fluorescent behavior. Two peptides (13 and 14, FIG. 4) were examined in greater detail. Both peptides were resynthesized on the Rink resin and purified by HPLC. In addition, the phosphotyrosine version of 13 was enzymatically prepared. […] If the SH2 domain is responsible for the fluorescence change induced by Src kinase-catalyzed phosphorylation, then the Lck SH2 domain concentration should influence the observed fluorescence response. […] The reactions were initiated by the addition of ATP. When only buffer was added to “initiate” the reaction (i.e. no ATP), the fluorescence of the mixture remained unperturbed. Furthermore, in the absence of Lck SH2 domain, ATP addition to initiate the reaction furnished an exceedingly modest change in fluorescence intensity (<5%). By contrast, increasing concentrations of SH2 domain produced increasing enhancements in fluorescence intensity. Above an Lck SH2 concentration of 16 μM, the change in fluorescence intensity began to level off, which is in keeping with the notion that the interaction between phosphopeptide and Lck SH2 domain was approaching saturation. […] This appears to be a consequence of the —NH(CH2)2SH tail that is present on the library members (but not on the amide-capped peptides, as a consequence of the respective synthesis methods used).
(§1) The fluorescence change was monitored as a function of time. Control assays in the absence of Lck-SH2 were also performed.
The assay protocol described above was used to assess the effect of GST-Lck-SH2 concentration on the observed fluorescence associated with the phosphorylation of pure peptide 13 (30 nM Src) and peptide 14 (15 nM Src).

[3] = target: T3, PTP1B (Homo sapiens, UniProt P18031); experiment: Effect of PTP1B on the fluorescence change; assay type: biochemical; settings: peptide substrate 4 μM; GST-Lck-SH2 22 μM
T3 construct: purchased Invitrogen
T3 sequence (P18031 1-435): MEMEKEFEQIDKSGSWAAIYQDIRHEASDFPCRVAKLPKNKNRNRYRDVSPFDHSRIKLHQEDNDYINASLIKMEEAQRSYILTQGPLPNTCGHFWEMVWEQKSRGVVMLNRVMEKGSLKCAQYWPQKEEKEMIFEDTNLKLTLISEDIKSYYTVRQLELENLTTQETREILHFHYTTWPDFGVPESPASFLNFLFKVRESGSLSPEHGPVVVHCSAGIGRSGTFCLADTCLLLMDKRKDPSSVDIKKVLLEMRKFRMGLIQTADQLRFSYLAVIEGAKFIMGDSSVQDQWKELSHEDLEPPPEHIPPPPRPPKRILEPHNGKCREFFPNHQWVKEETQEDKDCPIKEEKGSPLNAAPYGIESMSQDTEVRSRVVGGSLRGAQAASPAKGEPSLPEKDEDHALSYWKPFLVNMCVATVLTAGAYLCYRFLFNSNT

[4] = target: T1, Src; experiment: Vmax and Km of Src kinase-catalyzed phosphorylation at fixed Lck-SH2 (20 μM); assay type: biochemical; parameters: purchased Invitrogen; settings: varying peptide
Experimental: as §1
The final Src concentration was 30 nM for peptide 13 and 15 nM for peptide 14.

[5] = target: T1, Src; experiment: Assay of library: Src kinase-catalyzed phosphorylation of fluorophore-labeled peptides in presence of Lck-SH2, fluorescence change; assay type: biochemical; parameters: purchased Invitrogen; settings: fluorophore attachment site +4; —NH2 derivative (in parentheses, amide-capped); Lck-SH2 present
Experimental: The library was prepared via parallel synthesis using a previously described disulfide-linked Tentagel resin (see “Synthesis of Peptide Library” below). Following solid phase synthesis of the primary sequence, the side chain amine of the Dap or Dab residue was selectively deprotected and subsequently modified with the appropriate activated forms of 5, 6, and 7. The remaining protecting groups on the peptide were then removed with trifluoroacetic acid (TFA), the peptide-resin extensively washed to eliminate the last traces of TFA, and the peptide cleaved from the resin with assay buffer (which contained dithiothreitol) and purified by HPLC. The fluorescent response of the individual library members to Src catalysis in the presence of Lck SH2 was subsequently examined in detail (see “Assay of Library” below).
as §1

[6] = target: T4, Lck SH2 domain (Homo sapiens, UniProt P06239); experiment: Effect of competing Lck-SH2 domain ligand on the fluorescence change; assay type: binding; settings: ligand 50 μM, peptide substrate 4 μM, GST-Lck-SH2 22 μM
T4 construct: made in house; host or cells: E. coli
T4 sequence (P06239 127-224 limits assumed): as the sequence (P06239 127-224 limits assumed) above
Source text: As is evident from Table 1, the dapoxyl fluorophore positioned off the +3 and +4 sites on the peptide substrate (Dap-5 and Dab-5) produce the largest changes in fluorescent behavior. Two peptides (13 and 14, FIG. 4) were examined in greater detail. Both peptides were resynthesized on the Rink resin and purified by HPLC. In addition, the phosphotyrosine version of 13 was enzymatically prepared. […] If the SH2 domain is responsible for the fluorescence change induced by Src kinase-catalyzed phosphorylation, then the Lck SH2 domain concentration should influence the observed fluorescence response. […] The reactions were initiated by the addition of ATP. When only buffer was added to “initiate” the reaction (i.e. no ATP), the fluorescence of the mixture remained unperturbed. Furthermore, in the absence of Lck SH2 domain, ATP addition to initiate the reaction furnished an exceedingly modest change in fluorescence intensity (<5%). By contrast, increasing concentrations of SH2 domain produced increasing enhancements in fluorescence intensity. Above an Lck SH2 concentration of 16 μM, the change in fluorescence intensity began to level off, which is in keeping with the notion that the interaction between phosphopeptide and Lck SH2 domain was approaching saturation. […]

[7] = fluorophore on Dap at position Y+3, λex/λem (nm) (first pair listed for the fluorophore)
[8] = fluorophore on Dab at position Y−2, λex/λem (nm) (first pair listed for the fluorophore)

27: corresponding peptide containing Cascade Yellow positioned at Y+3, SEQ ID NO:16 (EEEIYGE[Dap](Cascade Yellow)EA) [Peptide 27]
Phosphorylation-induced fluorescence change [1]: smaller fluorescence response

CC[C@H](C)[C@H](NC(=O)[C@H](CCC(=O)O)NC(=O)[C@H](CNc1ccc([N+](=O)[O-])c2nonc12)NC(=O)[C@H](Cc1ccc(O)cc1)NC(=O)[C@@H](NC(=O)[C@H](CCC(=O)O)NC(=O)[C@H](CCC(=O)O)NC(=O)[C@H](CCC(=O)O)NC(C)=O)[C@@H](C)CC)C(=O)N[C@@H](CCC(=O)O)C(=O)N[C@@H](C)C(N)=O [Peptide 13, Ac-Glu-Glu-Glu-Ile-Tyr-Dap(NBD)-Glu-Ile-Glu-Ala] (Ac-EEEIY[Dap](NBD)EIEA-NH2)
change in fluorescence intensity on ATP addition ([2]; absence of Lck SH2 domain, peptide 16 μM): < 5% | Fluorescence Increase ([2]; peptide 16 μM, Lck-SH2 0 μM, 30 nM Src): 1.07 fold change | Fluorescence Increase ([2]; peptide 16 μM, Lck-SH2 4 μM, 30 nM Src): 1.24 fold change | Fluorescence Increase ([2]; peptide 16 μM, Lck-SH2 8 μM, 30 nM Src): 1.33 fold change | Fluorescence Increase ([2]; peptide 16 μM, Lck-SH2 12 μM, 30 nM Src): 1.41 fold change | Fluorescence Increase ([2]; peptide 16 μM, Lck-SH2 16 μM, 30 nM Src): 1.52 fold change | Fluorescence Increase ([2]; peptide 16 μM, Lck-SH2 20 μM, 30 nM Src): 1.56 fold change | Fluorescence Increase ([2]; peptide 16 μM, Lck-SH2 26 μM, 30 nM Src): 1.61 fold change | Fluorescence Increase ([2]; peptide 16 μM, Lck-SH2 32 μM, 30 nM Src): 1.59 fold change | fluorescence change when PTP1B is added at the same time as ATP [3]: blocked the fluorescence change | fluorescence intensity when PTP1B is added after completion of the Src kinase-catalyzed reaction [3]: reduced the fluorescence intensity to the starting value

Ac-Glu-Glu-Glu-Ile-Tyr-Gly-Glu-Ile-Dab(dapoxyl)-Ala (Ac-EEEIYGEI[Dab](dapoxyl)A-NH2; not fully specified; printed as Ac-Glu-Glu-Glu-Ile-Tyr-Gly-Glu-Ile-Dab(dapoxyl)-Ala) [Peptide 14]
Fluorescence Increase ([2]; peptide 8 μM, Lck-SH2 0.2 μM, 15 nM Src): 1.07 fold change | Fluorescence Increase ([2]; peptide 8 μM, Lck-SH2 2 μM, 15 nM Src): 1.70 fold change | Fluorescence Increase ([2]; peptide 8 μM, Lck-SH2 4 μM, 15 nM Src): 2.32 fold change | Fluorescence Increase ([2]; peptide 8 μM, Lck-SH2 8 μM, 15 nM Src): 4.31 fold change | Fluorescence Increase ([2]; peptide 8 μM, Lck-SH2 12 μM, 15 nM Src): 5.34 fold change | Fluorescence Increase ([2]; peptide 8 μM, Lck-SH2 16 μM, 15 nM Src): 6.20 fold change | Fluorescence Increase ([2]; peptide 8 μM, Lck-SH2 20 μM, 15 nM Src): 6.85 fold change | Fluorescence Increase ([2]; peptide 8 μM, Lck-SH2 26 μM, 15 nM Src): 7.32 fold change | Fluorescence Increase ([2]; peptide 8 μM, Lck-SH2 32 μM, 15 nM Src): 7.20 fold change | Km [4]: 4.8 ± 0.8 µM | Vmax [4]: 1.5 ± 0.1 µmol/min/mg | Fold change in fluorescence intensity in the Src kinase-catalyzed phosphorylation [5]: 7.2 fold

Ac-pTyr-Glu-Glu-Ile-Glu-amide (Ac-[pY]EEIE-NH2; SMILES CC[C@H](C)[C@H](NC(=O)[C@H](CCC(=O)O)NC(=O)[C@H](CCC(=O)O)NC(=O)[C@H](Cc1ccc(OP(=O)(O)O)cc1)NC(C)=O)C(=O)N[C@@H](CCC(=O)O)C(N)=O)
fluorescence change of the Src reaction in presence of known Lck SH2 domain ligand [6]: no fluorescence change was observed | fluorescence change of the Src reaction in presence of known Lck SH2 domain ligand ([6]; listed as Ac-pTyr-Glu-Glu-Ile-Glu-OH): no fluorescence change

BODIPY FL
Fluorescence change (fold) [1, 7]: 1.06 fold

Cascade Blue ™
Fluorescence change (fold) [1, 8]: 2.1 fold | Fluorescence change (fold) ([1]; fluorophore on Dap at position Y+3, λex 379 nm, λem 422 nm): 1.7 fold | Fluorescence change (fold) [1, 7]: 1.7 fold

Cascade Yellow (EE[Dab](Cascade Yellow)IYGEIEA)
Fluorescence change (fold) [1, 8]: 2.7 fold | Fluorescence change (fold) [1, 7]: 1.45 fold

Dansyl
Fluorescence change (fold) [1, 8]: 1.0 fold | Fluorescence change (fold) [1, 7]: 1.0 fold

NBD (Ac-EEEIY[Dap](NBD)EIEA-NH2; SMILES CC[C@H](C)[C@H](NC(=O)[C@H](CCC(=O)O)NC(=O)[C@H](CNc1ccc([N+](=O)[O-])c2nonc12)NC(=O)[C@H](Cc1ccc(O)cc1)NC(=O)[C@@H](NC(=O)[C@H](CCC(=O)O)NC(=O)[C@H](CCC(=O)O)NC(=O)[C@H](CCC(=O)O)NC(C)=O)[C@@H](C)CC)C(=O)N[C@@H](CCC(=O)O)C(=O)N[C@@H](C)C(N)=O)
Fluorescence change (fold) [1, 8]: 1.7 fold | Fluorescence change (fold) [1, 7]: 1.25 fold

Sensor 26: Cascade Yellow-containing sensor, fluorophore on Dab at Y−2, SEQ ID NO:15 (EE[Dab](Cascade Yellow)IYGEIEA)
Phosphorylation-induced fluorescence change [1]: 2.7 fold
